The target of the series is T1, HA-tagged VDR (vitamin D receptor), wild type (UniProt P11473).
T1 sequence: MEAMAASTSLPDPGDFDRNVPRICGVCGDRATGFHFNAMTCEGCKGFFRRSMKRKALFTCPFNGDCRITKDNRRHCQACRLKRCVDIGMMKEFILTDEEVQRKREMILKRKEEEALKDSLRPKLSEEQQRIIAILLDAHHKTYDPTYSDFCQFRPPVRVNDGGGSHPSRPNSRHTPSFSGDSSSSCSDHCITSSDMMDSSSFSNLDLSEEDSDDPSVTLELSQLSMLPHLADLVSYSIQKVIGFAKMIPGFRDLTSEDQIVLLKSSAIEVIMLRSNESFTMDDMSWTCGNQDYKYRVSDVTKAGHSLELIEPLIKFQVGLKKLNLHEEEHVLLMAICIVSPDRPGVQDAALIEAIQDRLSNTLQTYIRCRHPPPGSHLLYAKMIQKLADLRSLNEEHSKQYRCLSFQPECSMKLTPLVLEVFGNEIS

Consider enzymatically dead PCAF (D608A), for which the VDR acetylation entry is on record as “but not with the enzymatically dead PCAF D608A mutant”.

These data come from patent publication US20200129532.
